# Data reported in patent US20230391882A1 (NUMAB THERAPEUTICS, published 2023).
# Columns and labels:
# [1] = biological target: soluble mesothelin (sMSLN) (UniProt Q13421 296-580, limits assumed); experiment: cell-based or functional assay
# [2] = biological target: mesothelin (MSLN) on target cells (H226, MeT-5A) (UniProt Q13421 37-598, limits assumed); experiment: cell-based or functional assay
binder,measurement,setting,value
PRO2566 (MATCH4) (other) chain 1: AFELTQSPSSLSASVGDRVTITCQASESINSRLAWYQQKPGQPPKLLIYDASDLTSGVPSRFSGSGSGTDFTLTISSLQPEDFATYYCQGYGGSSTTTFGTGTKLTVLGGGGGSGGGGSGGGGSGGGGSEVQLVESGGGLVQPGGSLRLSCAASGFSLSSYAMNWVRQAPGKGLEWIGHINAGDIAYYATWAKGRFTISRDNSKNTVYLQMNSLRAEDTAVYFCARGAGGFSTGPFKLWGQGTLVTVSSGGGGSGGGGSEVQLVESGGGLVQPGGSLRLSCAASGFSLSSYDMSWVRQAPGKGLAWIGASYASGPTYYASWAKGRFTISRDNSKNTVYLQMNSLRAEDTATYFCARGGWTGTSHSNIWGQGTLVTVSSGGGSGGGSGGGSGQSQLVESGGGLVQPGGSLRLSCAVSGFSLSSYAMGWVRQAPGKCLEYIGYISKIGTTYYASWAKGRFTISKDNSKNTVYLQMNSLRAEDTAVYFCARGSSSGGYLDDGFDPWGQGTLVTVSS chain 2: ALQMTQSPSSLSARVGDRVTIKCQASQSISNYLAWYQQKPGKPPKFLIYDASDLASGVPSRFSGSGSGRDFTLTISSLQPEDFATYYCQQVYDSNNVENVFGCGTKVTVLGGGGGSGGGGSGGGGSGGGGSQSQLVESGGGLVQPGGSLRLSCAVSGFSLSSYAMGWVRQAPGKCLEYIGYISKIGTTYYASWAKGRFTISKDNSKNTVYLQMNSLRAEDTAVYFCARGSSSGGYLDDGFDPWGQGTLVTVSSGGGGSGGGGSALQMTQSPSSLSARVGDRVTIKCQASQSISNYLAWYQQKPGKPPKFLIYDASDLASGVPSRFSGSGSGRDFTLTISSLQPEDFATYYCQQVYDSNNVENVFGCGTKVTVLGGGSGGSGGSGGSGDIQMTQSPSSLSASVGDRVTITCQSSQSVFSNNYLAWFQQKPGQSPKRLIYSASTLASGVPSRFSGSGSGTDFTLTISSLQPEDFATYYCLGSYACSSADCYVFGTGTKVTVLG,increase of EC50 for killing high MSLN expressing target cells in the presence of 50 ng/ml sMSLN,[1],≤ 6 fold
same,increase of EC50 for killing high MSLN expressing target cells in the presence of 500 ng/ml sMSLN,[1],≤ 40 fold
same,T-cell driven cytotoxicity assay: EC50 for killing high MSLN expressing target cells against EC50 for killing MeT-5A cells,[2],≥ 25 fold
PRO2567 (MATCH4) (other) chain 1: AFELTQSPSSLSASVGDRVTITCQASESINSRLAWYQQKPGQPPKLLIYDASDLTSGVPSRFSGSGSGTDFTLTISSLQPEDFATYYCQGYGGSSTTTFGTGTKLTVLGGGGGSGGGGSGGGGSGGGGSEVQLVESGGGLVQPGGSLRLSCAASGFSLSSYAMNWVRQAPGKGLEWIGHINAGDIAYYATWAKGRFTISRDNSKNTVYLQMNSLRAEDTAVYFCARGAGGFSTGPFKLWGQGTLVTVSSGGGGSGGGGSEVQLVESGGGLVQPGGSLRLSCAASGFSLSSYDMSWVRQAPGKGLAWIGASYASGPTYYASWAKGRFTISRDNSKNTVYLQMNSLRAEDTATYFCARGGWTGTSHSNIWGQGTLVTVSSGGGSGGGSGGGSGQSQLVESGGGLVQPGGSLRLSCAVSGFSLSSYAMGWVRQAPGKCLEYIGYISKIGTTYYASWAKGRFTISKDNSKNTVYLQMNSLRAEDTAVYFCARGSSSGGYLDDGFDPWGQGTLVTVSS chain 2: ALQMTQSPSSLSARVGDRVTIKCQASQSISNYLAWYQQKPGKPPKFLIYDASDLASGVPSRFSGSGSGRDFTLTISSLQPEDFATYYCQQVYDSNNVENVFGCGTKVTVLGGGGGSGGGGSGGGGSGGGGSQSQLVESGGGLVQPGGSLRLSCAVSGFSLSSYAMGWVRQAPGKCLEYIGYISKIGTTYYASWAKGRFTISKDNSKNTVYLQMNSLRAEDTAVYFCARGSSSGGYLDDGFDPWGQGTLVTVSSGGGGSGGGGSALQMTQSPSSLSARVGDRVTIKCQASQSISNYLAWYQQKPGKPPKFLIYDASDLASGVPSRFSGSGSGRDFTLTISSLQPEDFATYYCQQVYDSNNVENVFGCGTKVTVLGGGSGGSDIQMTQSPSSLSASVGDRVTITCQSSQSVFSNNYLAWFQQKPGQSPKRLIYSASTLASGVPSRFSGSGSGTDFTLTISSLQPEDFATYYCLGSYACSSADCYVFGTGTKVTVLG,increase of EC50 for killing high MSLN expressing target cells in the presence of 50 ng/ml sMSLN,[1],≤ 6 fold
same,increase of EC50 for killing high MSLN expressing target cells in the presence of 500 ng/ml sMSLN,[1],≤ 40 fold
same,T-cell driven cytotoxicity assay: EC50 for killing high MSLN expressing target cells against EC50 for killing MeT-5A cells,[2],≥ 25 fold
PRO2562 (MATCH4) (other) chain 1: ALQMTQSPSSLSARVGDRVTIKCQASQSISNYLAWYQQKPGKPPKFLIYDASDLASGVPSRFSGSGSGRDFTLTISSLQPEDFATYYCQQVYDSNNVENVFGCGTKVTVLGGGGGSGGGGSGGGGSGGGGSQSQLVESGGGLVQPGGSLRLSCAVSGFSLSSYAMGWVRQAPGKCLEYIGYISKIGTTYYASWAKGRFTISKDNSKNTVYLQMNSLRAEDTAVYFCARGSSSGGYLDDGFDPWGQGTLVTVSSGGGGSGGGGSEVQLVESGGGLVQPGGSLRLSCAASGFSLSSYDMSWVRQAPGKGLAWIGASYASGPTYYASWAKGRFTISRDNSKNTVYLQMCSLRAEDTATYFCARGGWTGTSHSNIWGQGTLVTVSSGGGSGGGSGGGSGEVQLVESGGGLVQPGGSLRLSCAASGFSLSSYAMNWVRQAPGKCLEWIGHINAGDIAYYATWAKGRFTISRDNSKNTVYLQMNSLRAEDTAVYFCARGAGGFSTGPFKLWGQGTLVTVSS chain 2: ALQMTQSPSSLSARVGDRVTIKCQASQSISNYLAWYQQKPGKPPKFLIYDASDLASGVPSRFSGSGSGRDFTLTISSLQPEDFATYYCQQVYDSNNVENVFGCGTKVTVLGGGGGSGGGGSGGGGSGGGGSQSQLVESGGGLVQPGGSLRLSCAVSGFSLSSYAMGWVRQAPGKCLEYIGYISKIGTTYYASWAKGRFTISKDNSKNTVYLQMNSLRAEDTAVYFCARGSSSGGYLDDGFDPWGQGTLVTVSSGGGGSGGGGSAFELTQSPSSLSASVGDRVTITCQASESINSRLAWYQQKPGQPPKLLIYDASDLTSGVPSRFSGSGSGTDFTLTISCLQPEDFATYYCQGYGGSSTTTFGCGTKLTVLGGGSGGSGGSGGSGDIQMTQSPSSLSASVGDRVTITCQSSQSVFSNNYLAWFQQKPGQSPKRLIYSASTLASGVPSRFSGSGSGTDFTLTISSLQPEDFATYYCLGSYACSSADCYVFGTGTKVTVLG,increase of EC50 for killing high MSLN expressing target cells in the presence of 50 ng/ml sMSLN,[1],≤ 6 fold
same,increase of EC50 for killing high MSLN expressing target cells in the presence of 500 ng/ml sMSLN,[1],≤ 40 fold
same,T-cell driven cytotoxicity assay: EC50 for killing high MSLN expressing target cells against EC50 for killing MeT-5A cells,[2],≥ 25 fold
PRO2100 (biMSLNlow affinity x CD3 x hSA) (other) chain 1: DIQMTQSPSSLSASVGDRVTITCQASQNIYSNLAWYQQKPGKAPKLLIYDASDLASGVPSRFSGSGSGTDFTLTISSLQPEDFATYYCQQVRSSSDIDNPFGTGTKVTVLGGGGGSGGGGSGGGGSGGGGSQVQLVESGGGLVQPGGSLRLSCAASGFSLSSYAMGWVRQAPGKGLEWIGYISTIANTYYASWAKGRFTISRDNSKNTVYLQMNSLRAEDTAVYYCAREIRSGWVDYGFSIWGQGTLVTVSSGGGGSGGGGSEVQLVESGGGLVQPGGSLRLSCAASGFSLSSYDMSWVRQAPGKGLAWIGASYASGPTYYASWAKGRFTISRDNSKNTVYLQMNSLRAEDTATYFCARGGWTGTSHSNIWGQGTLVTVSSGGGSGGGSEVQLVESGGGLVQPGGSLRLSCAASGFSFSSSYWICWVRQAPGKCLEWVGCVFTGDGTTYYASWAKGRFTISRDNSKNTVYLQMNSLRAEDTATYFCARPVSVYYYGMDLWGQGTLVTVSS chain 2: DIQMTQSPSSLSASVGDRVTITCQASQNIYSNLAWYQQKPGKAPKLLIYDASDLASGVPSRFSGSGSGTDFTLTISSLQPEDFATYYCQQVRSSSDIDNPFGTGTKVTVLGGGGGSGGGGSGGGGSGGGGSQVQLVESGGGLVQPGGSLRLSCAASGFSLSSYAMGWVRQAPGKGLEWIGYISTIANTYYASWAKGRFTISRDNSKNTVYLQMNSLRAEDTAVYYCAREIRSGWVDYGFSIWGQGTLVTVSSGGGGSGGGGSDVVMTQSPSSLSASVGDRVTITCQASQIISSRSAWYQQKPGQPPKLLIYQASKLASGVPSRFSGSGSGTDFTLTISSLQPEDFATYYCQCTYIDSNFGAFGCGTKLTVLGGGSGGSDIQMTQSPSSLSASVGDRVTITCQSSQSVFSNNYLAWFQQKPGQSPKRLIYSASTLASGVPSRFSGSGSGTDFTLTISSLQPEDFATYYCLGSYACSSADCYVFGTGTKVTVLG,decrease of potency of T-cell driven target cell killing in the presence of 500 ng/ml soluble MSLN,[1],17 fold
